Experimental findings from patent publication US20250262210A1 (TRUSTEES OF COLUMBIA UNIVERSITY IN THE CITY OF NEW YORK, published 2025) are described below.

For one assay, the target named is CRYBG1 (human, UniProt Q9Y4K1 1-2131, limits assumed). Briefly: IP/MS, LZTR1 R810W-FLAG, U87. The method in brief: (§1)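 Read-out: spectral counts from LC-MS/MS (Orbitrap Fusion) after MaxQuant identification. Variable modifications were Met oxidation, protein N-terminal acetylation and N/Q deamidation.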
The next assay addresses T1, UBE4B (human, UniProt O95155 1-1302, limits assumed).
T1 sequence (looked up): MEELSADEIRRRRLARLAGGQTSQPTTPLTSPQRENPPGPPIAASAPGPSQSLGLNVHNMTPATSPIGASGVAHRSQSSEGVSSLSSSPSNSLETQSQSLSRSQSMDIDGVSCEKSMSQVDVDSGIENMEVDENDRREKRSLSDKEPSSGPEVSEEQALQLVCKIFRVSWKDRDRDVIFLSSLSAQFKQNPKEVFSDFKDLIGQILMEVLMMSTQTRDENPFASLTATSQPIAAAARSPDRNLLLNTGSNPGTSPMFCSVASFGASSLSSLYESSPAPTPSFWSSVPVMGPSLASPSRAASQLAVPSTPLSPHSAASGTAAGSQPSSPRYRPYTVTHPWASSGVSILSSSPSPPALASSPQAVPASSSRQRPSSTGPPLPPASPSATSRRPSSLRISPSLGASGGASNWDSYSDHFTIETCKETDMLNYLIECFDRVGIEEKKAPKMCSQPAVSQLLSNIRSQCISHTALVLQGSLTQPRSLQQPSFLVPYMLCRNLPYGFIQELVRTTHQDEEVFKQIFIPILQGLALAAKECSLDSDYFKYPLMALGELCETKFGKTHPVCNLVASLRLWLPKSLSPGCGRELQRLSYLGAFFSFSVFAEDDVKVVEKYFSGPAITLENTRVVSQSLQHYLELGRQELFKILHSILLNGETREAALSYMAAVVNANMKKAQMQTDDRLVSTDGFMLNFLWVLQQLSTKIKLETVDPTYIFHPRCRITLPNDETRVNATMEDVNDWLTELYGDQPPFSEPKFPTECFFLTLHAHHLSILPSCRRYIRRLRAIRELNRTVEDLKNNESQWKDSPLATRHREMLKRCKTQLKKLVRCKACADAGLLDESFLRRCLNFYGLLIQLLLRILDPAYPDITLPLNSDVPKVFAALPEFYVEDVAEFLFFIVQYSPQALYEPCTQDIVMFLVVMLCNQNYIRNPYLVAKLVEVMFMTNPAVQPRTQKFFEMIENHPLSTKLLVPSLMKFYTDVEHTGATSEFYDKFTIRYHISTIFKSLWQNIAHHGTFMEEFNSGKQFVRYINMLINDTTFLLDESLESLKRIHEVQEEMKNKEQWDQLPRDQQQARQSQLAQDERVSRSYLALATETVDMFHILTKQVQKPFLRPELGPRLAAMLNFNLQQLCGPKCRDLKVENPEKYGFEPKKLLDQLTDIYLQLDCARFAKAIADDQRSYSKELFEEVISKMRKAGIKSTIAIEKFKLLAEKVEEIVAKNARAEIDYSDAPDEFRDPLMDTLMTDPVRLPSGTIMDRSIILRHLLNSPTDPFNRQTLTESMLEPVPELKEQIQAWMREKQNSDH
Nature of the assay: IP/MS, LZTR1 R810W-FLAG, U87. The method in brief: as §1

Chain of CRYBG1 (Q9Y4K1 whole entry, the tested form may be a part): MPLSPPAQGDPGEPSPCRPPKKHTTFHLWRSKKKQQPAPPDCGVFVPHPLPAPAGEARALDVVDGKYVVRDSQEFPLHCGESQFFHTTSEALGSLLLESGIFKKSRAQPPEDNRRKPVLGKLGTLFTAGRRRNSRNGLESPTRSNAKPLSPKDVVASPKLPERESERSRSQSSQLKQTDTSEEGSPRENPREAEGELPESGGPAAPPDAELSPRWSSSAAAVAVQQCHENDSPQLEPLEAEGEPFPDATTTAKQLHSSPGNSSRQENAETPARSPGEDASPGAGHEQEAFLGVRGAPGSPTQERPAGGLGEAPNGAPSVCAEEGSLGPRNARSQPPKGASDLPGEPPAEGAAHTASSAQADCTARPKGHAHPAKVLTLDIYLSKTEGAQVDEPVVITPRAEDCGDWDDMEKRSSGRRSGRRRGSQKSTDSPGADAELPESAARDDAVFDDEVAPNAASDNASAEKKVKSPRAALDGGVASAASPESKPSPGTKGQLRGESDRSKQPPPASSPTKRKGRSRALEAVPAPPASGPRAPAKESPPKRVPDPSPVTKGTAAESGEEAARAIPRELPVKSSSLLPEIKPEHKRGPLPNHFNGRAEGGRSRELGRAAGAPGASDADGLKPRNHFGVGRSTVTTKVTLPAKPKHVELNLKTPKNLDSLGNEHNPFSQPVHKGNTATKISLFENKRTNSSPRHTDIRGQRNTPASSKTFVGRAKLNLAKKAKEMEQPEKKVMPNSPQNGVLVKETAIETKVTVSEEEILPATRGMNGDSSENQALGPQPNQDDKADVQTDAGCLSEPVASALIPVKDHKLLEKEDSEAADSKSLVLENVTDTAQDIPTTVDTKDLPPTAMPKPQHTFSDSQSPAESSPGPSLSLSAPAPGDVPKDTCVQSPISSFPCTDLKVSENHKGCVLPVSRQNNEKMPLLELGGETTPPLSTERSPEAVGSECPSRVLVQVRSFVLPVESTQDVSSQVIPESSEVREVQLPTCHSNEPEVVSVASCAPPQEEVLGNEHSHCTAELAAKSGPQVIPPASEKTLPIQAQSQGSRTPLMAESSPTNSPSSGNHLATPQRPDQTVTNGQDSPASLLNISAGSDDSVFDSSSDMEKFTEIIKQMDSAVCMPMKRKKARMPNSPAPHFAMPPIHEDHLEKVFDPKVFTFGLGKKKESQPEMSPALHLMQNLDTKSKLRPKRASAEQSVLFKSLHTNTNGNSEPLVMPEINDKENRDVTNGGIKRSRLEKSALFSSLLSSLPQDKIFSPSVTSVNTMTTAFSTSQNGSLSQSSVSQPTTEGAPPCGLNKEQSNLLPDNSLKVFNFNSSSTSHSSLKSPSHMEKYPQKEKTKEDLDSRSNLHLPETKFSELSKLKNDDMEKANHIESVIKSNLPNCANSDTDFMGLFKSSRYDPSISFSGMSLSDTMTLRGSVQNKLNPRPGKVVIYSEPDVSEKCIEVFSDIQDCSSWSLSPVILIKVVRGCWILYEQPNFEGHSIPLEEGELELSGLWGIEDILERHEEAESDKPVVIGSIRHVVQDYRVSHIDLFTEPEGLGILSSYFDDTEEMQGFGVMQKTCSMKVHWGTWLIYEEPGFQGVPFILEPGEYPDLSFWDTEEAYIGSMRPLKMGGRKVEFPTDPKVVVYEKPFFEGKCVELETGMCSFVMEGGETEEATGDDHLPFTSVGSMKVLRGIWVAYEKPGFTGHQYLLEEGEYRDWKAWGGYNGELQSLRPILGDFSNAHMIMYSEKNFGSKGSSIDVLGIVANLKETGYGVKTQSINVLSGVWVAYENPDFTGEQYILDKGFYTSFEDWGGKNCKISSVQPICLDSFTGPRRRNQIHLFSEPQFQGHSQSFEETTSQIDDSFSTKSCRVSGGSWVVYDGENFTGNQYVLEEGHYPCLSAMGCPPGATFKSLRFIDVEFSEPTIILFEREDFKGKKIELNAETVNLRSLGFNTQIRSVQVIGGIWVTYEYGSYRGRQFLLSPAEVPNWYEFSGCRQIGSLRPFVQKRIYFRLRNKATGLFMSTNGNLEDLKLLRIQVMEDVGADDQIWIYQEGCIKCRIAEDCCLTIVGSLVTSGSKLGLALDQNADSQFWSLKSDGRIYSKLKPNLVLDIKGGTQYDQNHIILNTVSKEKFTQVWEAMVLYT

B1: LZTR1 R810W-FLAG (other, human, UniProt Q8N653 1-840, looked up)
chain: MAGPGSTGGQIGAAALAGGARSKVAPSVDFDHSCSDSVEYLTLNFGPFETVHRWRRLPPCDEFVGARRSKHTVVAYKDAIYVFGGDNGKTMLNDLLRFDVKDCSWCRAFTTGTPPAPRYHHSAVVYGSSMFVFGGYTGDIYSNSNLKNKNDLFEYKFATGQWTEWKIEGRLPVARSAHGATVYSDKLWIFAGYDGNARLNDMWTIGLQDRELTCWEEVAQSGEIPPSCCNFPVAVCRDKMFVFSGQSGAKITNNLFQFEFKDKTWTRIPTEHLLRGSPPPPQRRYGHTMVAFDRHLYVFGGAADNTLPNELHCYDVDFQTWEVVQPSSDSEVGGAEVPERACASEEVPTLTYEERVGFKKSRDVFGLDFGTTSAKQPTQPASELPSGRLFHAAAVISDAMYIFGGTVDNNIRSGEMYRFQFSCYPKCTLHEDYGRLWESRQFCDVEFVLGEKEECVQGHVAIVTARSRWLRRKITQARERLAQKLEQEAAPVPREAPGVAAGGARPPLLHVAIREAEARPFEVLMQFLYTDKIKYPRKGHVEDVLLIMDVYKLALSFQLCRLEQLCRQYIEASVDLQNVLVVCESAARLQLSQLKEHCLNFVVKESHFNQVIMMKEFERLSSPLIVEIVRRKQQPPPRTPLDQPVDIGTSLIQDMKAYLEGAGAEFCDITLLLDGHPRPAHKAILAARSSYFEAMFRSFMPEDGQVNISIGEMVPSRQAFESMLRYIYYGEVNMPPEDSLYLFAAPYYYGFYNNRLQAYCKQNLEMNVTVQNVLQILEAADKTQALDMKRHCLHIIVHQFTKVSKLPTLWSLSQQLLLDIIDSLASHISDKQCAELGADI
notes: Stably expressed in U87 cells by lentivirus; also called LZTR1-FLAG-R810W; LZTR1 RW; not shown: FLAG tag
On to B1, for which the binding result in the assay with CRYBG1 and with UBE4B was “binds” in each case.
